Source: US20130123350, “NUCLEIC ACID MOLECULE CAPABLE OF BINDING TO c-MET AND USE THEREOF” (KANAGAWA PREFECTURAL HOSPITAL ORGANIZATION, published 2013)

B1: g12 (ssRNA)
RNA: GGGACGCUCACGUACGCUAACGCGGCCAUCCGGCGUUUGGAACGGGAUGUACACCUGACAUCAGUGCCUGGACGUGCAGU
B2: g13 (ssRNA)
RNA: GGGACGCUCACGUACGCUAAUCACUCGGACAGCCGGAGCGAAACGGGCUGUGUAAGACUGUCAGUGCCUGGACGUGCAGU
B3: g14 (ssRNA)
RNA: GGGACGCUCACGUACGCUAAUCAUCGGGACAUCGGAUGGAACGGGUGUCAAGAAGCGUGUUCAGUGCCUGGACGUGCAGU
B4: g15 (ssRNA)
RNA: GGGACGCUCACGUACGCUAAGACGCGGGCCACCGGCUAGCGACGGGUGGUAAAGGGCUUGUCAGUGCCUGGACGUGCAGU
B5: g16 (ssRNA)
RNA: GGGACGCUCACGUACGCUAACCGCUACCGGGUGCAACGGGUAGACUGUAACCAGGUGAUAUCAGUGCCUGGACGUGCAGU
B6: g17 (ssRNA)
RNA: GGGACGCUCACGUACGCUAAAGUGAUGGCCGGCUGGAGAAACGGGCCACUCGAUCCAGGUCAGUGCCUGGACGUGCAGU
B7: g18 (ssRNA)
RNA: GGGACGCUCACGUACGCUAAGGCACCCUAUAGGAUUCAGCCCCUAACCCGGUGUUGUGAAUCAGUGCCUGGACGUGCAGU
B8: g19 (ssRNA)
RNA: GGGACGCUCACGUACGCUAAGUAGCCGUGAUUGGGUUGGCUGCCCACAAUUAUCCAGGACUCAGUGCCUGGACGUGCAGU
B9: g20 (ssRNA)
RNA: GGGACGCUCACGUACGCUAAACGUUGUGGCGAACUUCGGCCCGAACGGGAGUAACUGCAUCAGUGCCUGGACGUGCAGU
B10: g21 (ssRNA)
RNA: GGGACGCUCACGUACGCUAACCUUGGUGUCAUCCGACCAAAUUAGAACGGGAUGAGGAAGUCAGUGCCUGGACGUGCAGU
B11: g22 (ssRNA)
RNA: GGGACGCUCACGUACGCUAAGCGUGUUUCUUCAUUUCGACGCUGGCCAACGGAAAUGCAAUCAGUGCCUGGACGUGCAGU
B12: g23 (ssRNA)
RNA: GGGACGCUCACGUACGCUAAAUGGGAGUGCGCCUCGGCUCUAACGGAGGUAUGCACGUCAUCAGUGCCUGGACGUGCAGU
B13: g24 (ssRNA)
RNA: GGGACGCUCACGUACGCUAAGAGUUGUCGCACAGCGACUCGAAAAUAAUCUGUCCGACACUCAGUGCCUGGACGUGCAGU
B14: g25 (ssRNA)
RNA: GGGACGCUCACGUACGCUAAUAGCAACAGUUCCCAGAGGUGAUCAGGCAGCCUUAAGACAUCAGUGCCUGGACGUGCAGU
B15: g26 (ssRNA)
RNA: GGGACGCUCACGUACGCUAAGCUCCACCAGGUGUAGCUAGCCUGUAGACAUCAGUAGCAUCAGUGCCUGGACGUGCAGU
B16: g27 (ssRNA)
RNA: GGGACGCUCACGUACGCUAACCUAUGCAGACCGACAUCCGGGUAUACGGGAUGAUGCGACUCAGUGCCUGGACGUGCAGU

molecular target: rec-cMet (Recombinant Human HGF R/c-MET/Fc Chimera) (Homo sapiens, UniProt P08581;P08581 SEQ:1-283,SEQ:1-625); test: SPR; rec-cMet 100 nM; conditions: tags: C-terminal HIEGRMD linker, human IgG Fc (100-330), 6xHis; R&D Systems; chain copies: 2 (inferred, Fc chimera)
Method: Using these truncated RNA aptamers, the binding ability thereof to the rec-cMet was examined. The binding ability was analyzed using BIACORE (registered trademark) X (GE Healthcare) in accordance with its instructions for use, with the concentration of the rec-cMet being set to 175 nmol/L. Also, the binding ability of each of the RNA aptamers g1 and g1-trA was examined in the same manner. As a comparative example, the 40N was used, and the binding ability thereof was examined in the same manner.
The binding ability of each of the RNA aptamers to the rec-cMet was examined in the same manner as in Example 5, except that the above RNA aptamers were used. The concentration of the rec-cMet was set to 100 nmol/L. With the time point at which the introduction of the rec-cMet to the chip was started being 0 seconds, introduction of a buffer was started 60 seconds later.

Sequence of rec-cMet (Recombinant Human HGF R/c-MET/Fc Chimera) (P08581 25-307, stated change not applied, chain 1 of 2): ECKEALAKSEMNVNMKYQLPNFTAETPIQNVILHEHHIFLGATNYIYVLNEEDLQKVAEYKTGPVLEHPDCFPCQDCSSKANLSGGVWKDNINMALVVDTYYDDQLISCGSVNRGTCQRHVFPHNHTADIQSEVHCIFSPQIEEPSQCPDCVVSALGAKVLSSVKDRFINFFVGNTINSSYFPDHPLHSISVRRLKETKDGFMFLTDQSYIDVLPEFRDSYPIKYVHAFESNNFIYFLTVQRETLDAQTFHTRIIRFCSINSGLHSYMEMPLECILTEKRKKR
Sequence of rec-cMet (Recombinant Human HGF R/c-MET/Fc Chimera) (P08581 308-932, stated change not applied, chain 2 of 2): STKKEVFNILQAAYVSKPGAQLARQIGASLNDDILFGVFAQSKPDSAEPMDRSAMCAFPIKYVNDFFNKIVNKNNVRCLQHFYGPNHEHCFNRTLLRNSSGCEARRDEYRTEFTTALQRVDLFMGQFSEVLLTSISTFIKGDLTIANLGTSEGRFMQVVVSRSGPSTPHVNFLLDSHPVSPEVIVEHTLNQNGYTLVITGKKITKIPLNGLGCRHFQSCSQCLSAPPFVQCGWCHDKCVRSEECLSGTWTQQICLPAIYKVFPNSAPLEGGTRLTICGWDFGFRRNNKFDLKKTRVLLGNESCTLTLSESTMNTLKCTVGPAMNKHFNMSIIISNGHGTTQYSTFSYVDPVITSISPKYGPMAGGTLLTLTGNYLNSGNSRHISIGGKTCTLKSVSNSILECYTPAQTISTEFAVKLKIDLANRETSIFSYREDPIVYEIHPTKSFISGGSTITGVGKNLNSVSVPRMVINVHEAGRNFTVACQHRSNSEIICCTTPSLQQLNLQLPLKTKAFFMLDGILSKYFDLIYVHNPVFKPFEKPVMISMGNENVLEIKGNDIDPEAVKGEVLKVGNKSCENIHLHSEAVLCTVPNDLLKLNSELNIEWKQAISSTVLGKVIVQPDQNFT

Binding result, binds:
B1
B2
B3
B4
B5
B6
B7
B8
B9
B10
B11
B12
B13
B14
B15
B16
